Results taken from PMC3994269.
“And” between values parts separate entries of the source, which are not always exact repeats. Equal values may be shown once.

What was measured:
[1] = target: Plasmodium falciparum heat shock factor binding protein (PfHSBP), endogenous (P. falciparum (endogenous in 3D7 parasites)) (UniProt Q8IIF8); test: immunoprecipitation, SDS-PAGE and phosphorimaging; lysate of [35S]-labelled P. falciparum (1% Triton X-100); anti-PfHSBP antiserum 1:25 at 4°C for 12 hours, Protein G beads; Protein G and pre-immune serum controls
[2] = target: Plasmodium falciparum heat shock factor binding protein (PfHSBP), endogenous (P. falciparum (endogenous in 3D7 parasites)) (UniProt Q8IIF8); test: SEC; P. falciparum lysate on Superdex 200 10/300 GL in PBS; fractions immunoblotted for PfHSBP
[3] = target: Plasmodium falciparum heat shock factor binding protein (PfHSBP), endogenous (P. falciparum (endogenous in 3D7 parasites)) (UniProt Q8IIF8); test: SDS-PAGE and immunoblot (SDS-resistant oligomers); P. falciparum lysate resolved on SDS-PAGE and probed with anti-PfHSBP antiserum; pre-immune serum as control

Substance: Plasmodium falciparum heat shock factor binding protein (PfHSBP), endogenous (from UniProt Q8IIF8 1-113) (natural protein)
- stoichiometry N [1]: 6
- stoichiometry N [2]: 6
- stoichiometry N [3]: 3 and 6
